Results from PMC9378758.

Target: Chikungunya virus (CHIKV) strain S27 E1 glycoprotein (Chikungunya virus strain S27)
Assay: cryo-EM structure; cryo-ET with sub-tomogram averaging (PEET) of 591 protein spikes on liposomes after completed fusion with CHIKV at low pH, late time points, room temperature; 27.2 Å at 0.5 FSC; 3-fold symmetry seen before it was imposed

Q: For “Chikungunya virus (CHIKV) strain S27 E1 glycoprotein (natural protein)”, which stoichiometry N is on record?
A: 3
